# Test: yeast display, Sf9 membrane polyspecificity reagent, FACS + sequencing; frameworks hold sequencing errors
# In short: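 A synthetic nanobody library was expressed on Saccharomyces cerevisiae BJ5465 by galactose induction for 36–48 hours. The library was stained for 1 hour at 4 °C with 10% biotinylated, detergent-solubilized Sf9 membrane reagent and enriched with streptavidin microbeads before FACS. Low and high (top ~1%) gates were set on anti-HA fluorescence for expression and streptavidin fluorescence for reagent binding, and each polyreactivity label reflects the gate of origin.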
row,Sequence,polyreactivity (PSR sort gate)
1,QVQLVESGGGLVQAGGSLRLSCAASGRIFRLYVMGWYRQAPGKERELVAAITRGGGTYYADSVKGRFTISRDNAKNTVYLQMNSLKPEDTAVYYCAVGTYTIYSGTLYDYKYYWGQGTQVTVSS,low polyreactivity
2,QVQLVESGGGLVQAGGSLRLSCAASGRIFRNYAMGWYRQAPGKERELVAAISYTTGSTYYADSVKGRFTISRDNAKNTVYLQMNSLKPEDTAVYYCATTDWYFKFYYWGQGTQVTVSS,high polyreactivity
3,QVQLVESGGGLVQAGGSLRLSCAASGRIFRPYAMGWYRQAPGKERELVASISWRGSSTYYADSVKGRFTISRDNAKNTVYLQMNSLKPEDTAVYYCAARPYTLAFYRYGYWGQGTQVTVSS,high polyreactivity
4,QVQLVESGGGLVQAGGSLRLSCAASGRIFRQNAMGWYRQAPGKERELVAAIDWNGTSTYADSVKGRFTISRDNAKNTVYLQMNSLKPEDTAVYYCNASESKPTFEYDYWGQGTQVTVSS,low polyreactivity
5,QVQLVESGGGLVQAGGSLRLSCAASGRIFRQYAMGWYRQAPGKEREFVAGISTTGGSTYYADSVKGRFTISRDNAKNTVYLQMNSLKPEDTAVYYCAVRINWSRWYHYYTYNYWGQGTQVTVSS,high polyreactivity
6,QVQLVESGGGLVQAGGSLRLSCAASGRIFRRNVMGWYRQAPGKERELLAAIRGTGSTTYADSVKGRFTISRDNAKNTVYLQMNSLKPEDTAVYYCNAYKGQTGGGGRYGYWGQGTQVTVSS,high polyreactivity
7,QVQLVESGGGLVQAGGSLRLSCAASGRIFRRYAMGWYRQAPGKEREFVAAISYGGGSTYYADSVKGRFTISRDNAKNTVYLQMNSLKPEDTAVYYCNADEVVWGYNYWGQGTQVTVSS,low polyreactivity
8,QVQLVESGGGLVQAGGSLRLSCAASGRIFRRYAMGWYRQAPGKERELVAAISSGGSTNYADSVKGRFTLSRDNAKNTVYLQMNSLKPEDTAVYYCAARRTATTSRAYYYWGQGNQVTVSS,high polyreactivity
9,QVQLVESGGGLVQAGGSLRLSCAASGRIFRRYAMGWYRQAPGKERELVAAISSGGSTYYADSVKGRFTISRDNAKKTVYLQMNSLKPEDTAVYYCNAKVGAYLNYGYWGQGTQVTVSS,low polyreactivity
10,QVQLVESGGGLVQAGGSLRLSCAASGRIFRRYAMGWYRQAPGKERELVAAISSGGSTYYADSVKGRFTISRDNAKNTVYLQMNSLKPEDTAVYYCNAIVGAYLNYGYWGQGTQVTVSS,low polyreactivity
11,QVQLVESGGGLVQAGGSLRLSCAASGRIFRRYAMGWYRQAPGKERELVAAITSGSSTNYADSVKGRFTISRDNAKNTVYLQMNSLKPEDTAVYYCNAKLRGYYYSRYNYWGQGTQVTVSS,high polyreactivity
12,QVQLVESGGGLVQAGGSLRLSCAASGRIFRRYAMGWYRQAPGKERELVASISSGGSTNYADSVKGRFTISRDNAKNTVYLQMNSLKPEDTAVYYCNVYYGYFRSRYGYWGQGTQVTVSS,high polyreactivity
13,QVQLVESGGGLVQAGGSLRLSCAASGRIFRSNAMGWYRQAPGKERELVAAINNRDTSTYADSVKGRFTISRDNAKNTVYLQMNSLKPEDTAVYYCAARYQYYSTYGVTLDYWGQGTQVTVSS,low polyreactivity
14,QVQLVESGGGLVQAGGSLRLSCAASGRIFRSNAMGWYRQAPRKERELVAVITTAGSTNYADSVKGRFTISRDNAKNTVYLQMNSLKQEDTAVYYCATENGTRKRRYDYWGQGTQVTVSS,low polyreactivity
15,QVQLVESGGGLVQAGGSLRLSCAASGRIFRSNAMGWYSQAPGKERELVAAITLRGGSTFYADSVKGRFTISRDNAKNTVYLQMNSLKPEDTAVYYCAARSYWSRSIWSPYDYWGQGTQVTVSS,high polyreactivity
16,QVQLVESGGGLVQAGGSLRLSCAASGRIFRSNGMGWCRQAPGKERELVAVITPRSGTTSYADSVKGRFTISRDNAKNTVYLQRNSLKPEDTAVYYCAADSDWYPSPYDYWGQGTQVTVSS,high polyreactivity
17,QVQLVESGGGLVQAGGSLRLSCAASGRIFRSYAMGWYRQAPGKERELVAAITWGGGRTYYADSVKGRFTISRDNAKNTVYLQMNSLKPEDTAVYYCNTLAYPYYRGSKYDYWGQGTQVTVSS,high polyreactivity
18,QVQLVESGGGLVQAGGSLRLSCAASGRIFRSYAMGWYRQAPGKERELVAAITWSGGSTYYADSVKGRFTISRDNAKNTVYLQMDSLKPEDTAVYYCARVVTKKYSHTGYEYWGQGTQVTVSS,high polyreactivity
19,QVQLVESGGGLVQAGGSLRLSCAASGRIFRSYAMGWYRQAPGKERELVADISISGGRTYYADSVKGRFTISRDNAKNTVYLQMNSLKPEDTAVYYCAARTYDRNRQLRRQWYDYWGQGTQVTVSS,high polyreactivity
20,QVQLVESGGGLVQAGGSLRLSCAASGRIFRSYVMGWYRQAPGKERELVAVISKNGGTTYYADSVKGRFTISRDNAKNTVYLQMNSLKPEDTAVYYCAADFRYRSQPGWGARRNGYYWGQGTQVTVSS,high polyreactivity
21,QVQLVESGGGLVQAGGSLRLSCAASGRIFRTYAMGWYRQAPGKERELVAAISYSGGSTFYADSVKGRFTISRDNAKNTVYLQMNSLKPEDTAVYYCAADSRAKRYYWGQGTQVTVSS,high polyreactivity
22,QVQLVESGGGLVQAGGSLRLSCAASGRIFRVNAMGRYRQAPGKERELVAAITRSGGSTYYADSVKGRFTISRDNAKNTVYLQRNSLKPEDTAVYYCNADPRLRQTRDYWGQGTQVTVSS,high polyreactivity

row,Sequence,polyreactivity (PSR sort gate)
1,QVQLVESGGGLVQAGGSLRLSCAASGRIFRVNTMGWSRQAPGKERELVAAIRSSGTRPYYADSVKGRFTISRDHAKNTVYLQMNSLIPEDTAVYYCAAEHYWWYVFPSLWGEDDYWGQGTQVTVSS,high polyreactivity
2,QVQLVESGGGLVQAGGSLRLSCAASGRIFRVYAMGWYRQEPGKERELVAGISFRGASTYYADSVKGRFTISRDNAKNTVYLQMNSLKPEDTAVYYCAAALPVQYRDMYSWGQGTQVTVSS,high polyreactivity
3,QVQLVESGGGLVQAGGSLRLSCAASGRIFRVYAMGWYSQAPGKERELVASISSGGSTNYADSVKGRFTISRDNANNTVYLQMNSLKPEDTAVYYCAADRSGSFYKLDYWGQGTHVTVSS,low polyreactivity
4,QVQLVESGGGLVQAGGSLRLSCAASGRIFRWNAMGWYRQAPGKERELVAVISSGGSTNYADSVKGRFTISRDNAKNTVYLQMNSLKPEDTAVYYCAKGLIRYSHLDYWGQGTQVTVSS,low polyreactivity
5,QVQLVESGGGLVQAGGSLRLSCAASGRIFRWYAMGWYRQAPGKERELVAAITRSGSTTYYADSVKGRFTISRDNAKNAVYLQMNSLKPEDTAVSYSAAGYRGGYGWSVRMDYWGQGTQVTVSS,high polyreactivity
6,QVQLVESGGGLVQAGGSLRLSCAASGRIFRWYAMGWYRQAPGKERELVARITSGSSTYYADSVKGRFTISRDNAKNTVYLQMHSLKPEDTAVYYCATRTLQPGYTYPRYYWGQGTQVTVSS,high polyreactivity
7,QVQLVESGGGLVQAGGSLRLSCAASGRIFRYKAMGGYRQAPGKEREFVAAISSSGGSTFYADSVKGRFTISRDNAKNTVYLQMNSLIPEDTAAYYCAADDAGFWYYYYGRYVTFDYWGQGTQVTVSS,low polyreactivity
8,QVQLVESGGGLVQAGGSLRLSCAASGRIFRYNAMGWYRQAPGKERELVAAIRFSGGSTYYADSVKGRFTISRDNAKNTVYLQMNSLKPEYSAVYYCAKVYFRVQSGMDYWGQGTQVTVSS,low polyreactivity
9,QVQLVESGGGLVQAGGSLRLSCAASGRIFRYNAMGWYRQAPGKERELVAAISGSGDRMYYADSVKGRFTISRDNAKNTVYFHMNSLKPEDTAVYYCAADVVWRQYGSWFYYWGQGTQVTVSS,high polyreactivity
10,QVQLVESGGGLVQAGGSLRLSCAASGRIFRYNAMGWYRQAPGKERELVAAISRSGGSTYYADSVKGRFTISRDNAKNTVYLQINSLKPEDTAVYYCAVGSPYGGRAPWVRGGDYWGQGTQVTVSS,high polyreactivity
11,QVQLVESGGGLVQAGGSLRLSCAASGRIFRYNAMGWYRQAPGKERELVAAITWDGGSTYYADSVKGRFTISRDNAKNTVYLQMNSLKPEDTAVYYCNAVTRSYYSYYYWGQGTQVTVSS,high polyreactivity
12,QVQLVESGGGLVQAGGSLRLSCAASGRIFRYNAMGWYRQAPGKERELVASINQRGGSTYYADSVKGRFTISRDNAKNTVYLQMNSLKPEDTAVYYCAKRFNSGYYYWGQGTQVTVSS,high polyreactivity
13,QVQLVESGGGLVQAGGSLRLSCAASGRIFRYNAMGWYRQAPGKERELVATITDGGSTSYADSVKGRFTISRDNAKNTVYLQMNSLKPEDTAVYYCARDPLPSYWKVWSRPTFDYWGQGTQVTVSS,low polyreactivity
14,QVQLVESGGGLVQAGGSLRLSCAASGRIFRYNAMGWYRQAPGKETELVAVFSGSGGSTYYADSVKGRFTISRDNAKHTVYVQMNSLKPEDTAVYYCAAQFHVSWYNYWGQGTQVTVSS,low polyreactivity
15,QVQLVESGGGLVQAGGSLRLSCAASGRIFRYYAMGWYIQAPGKERELVAAISKSGGGTFYADSVKGRFTISRDNAKNTVYLQMNSLKPEDTEVYYCAARDKGLGKHDYWGQGTQVTVSS,low polyreactivity
16,QVQLVESGGGLVQAGGSLRLSCAASGRIFRYYAMGWYRQAPGKEREFVAAINSSGVNTYYADSVKGRFTISRDNAKNTVYLQMNSLKPEDTAVYYCAFLGMDYWGQGTQVTVSS,high polyreactivity
17,QVQLVESGGGLVQAGGSLRLSCAASGRIFRYYAMGWYRQAPGKERELVAAINSGGSTKYADSVKGRFTISRDNAKNTVYLQMNSLTPEDTAVYYCNKDHAFSRYWYGGFDYWGQGTQVTVSS,high polyreactivity
18,QVQLVESGGGLVQAGGSLRLSCAASGRIFRYYAMGWYRQAPGKERELVAAIRGGGSTYYADSVKGRFTISRDNAKNTVYLQMNSLKPEDTAVYYCAAPLIISTLWYKRYDYWGQGTQVTVSS,high polyreactivity
19,QVQLVESGGGLVQAGGSLRLSCAASGRIFRYYAMGWYRQAPGKERELVAAISGTGGNTYYADSVKGRSTISRDNAKNTVYLQMNSLKPEDTAVYYCAADQEWYYYFDSFAYYILDYWGQGTQVTVSS,high polyreactivity
20,QVQLVESGGGLVQAGGSLRLSCAASGRIFRYYAMGWYRQAPGKERELVAAISKTGGSTYYADSVKGRFTISRDNAKNTVYLQMNSLKPEDTAVYYCAAVGRYSYLSSEGDYWGQGTQVTVSS,high polyreactivity
21,QVQLVESGGGLVQAGGSLRLSCAASGRIFRYYAMGWYRQAPGKERELVAAISSGGRTYYADSVKGRFTISRDNAKNTVYLQMNSLKPEDTAVYYCNAYAYHAGGDYWGQGTQVTVSS,high polyreactivity
